Measured values reported in the supplement of paper PMC10567573.

B1: TSPAN10 (parent)
chain: EGCGPPLRRWLRANLAASGGYAIA
B2: BCL2L13 (parent)
chain: YIIQQGGWGTVFSLESEEEEYPGI

Variants of: B1
Assay: protein stability index of a GFP-peptide fusion (GPS, HEK-293T) (PSI 1-6); higher = more stable
Conditions: c terminus: a fixed tail appended
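Further: lentivirally expressed fusions sorted by FACS into six bins by GFP to DsRed ratio, PSI derived from sequencing read proportions per bin multiplied by bin number.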

Protein stability index of substitutions, site by site:
G2: I 2.15; W 2; Y 1.69; D 1.91; T 1.83; H 2.07; A 2; F 2.24; R 2.04; S 1.6; K 2.32; E 1.97; V 1.53; C 1.68; Q 2.33; P 1.85; N 1; L 1.57
W10: F 1.61; V 1.89; P 3.39; E 3.4; K 2.09; M 2.62; C 2.03; Y 2.44; A 3.63; N 2.55; G 3.35; D 3.25; T 3.01; H 2.53; Q 2.24; R 3.5; S 2.81; L 2.42; I 2.94
C3: T 1.7; H 2.62; D 2.37; V 1.76; G 2.11; F 1.61; K 1.93; Q 3.09; R 1.4; I 2.83; A 2.3; W 1.72; S 2.45; E 2.82; L 2.65; M 1.78; P 2.25
R12: T 1.82; Q 2.17; S 2.58; Y 2.84; I 2.82; C 2.17; M 1.9; W 3.67; E 2.23; G 1.82; A 1.75; H 2.47; P 2.5; L 3.2; K 2.92; N 1.73; F 2.29; D 1.8
L7: P 2.27; G 1.82; M 2.39; C 1.87; V 2.3; K 1.97; F 1.4; N 2.67; T 2.97; Y 2; W 2.05; S 2.29; E 1.78; I 1.39; R 3.1; H 2.39; A 1.91; Q 1.36; D 2.33
S18: F 2.57; E 1.75; L 2.19; I 1.44; D 2.71; C 2.15; G 1.98; K 1.61; H 1.87; A 1.97
E1: C 3.75; N 1.96; W 2.07; L 1.81; K 1.42; Q 1.38; I 1.81; A 1.63; G 2; S 2.37; Y 1.97; P 1.71; R 2.57; D 2.06; T 1.39; V 1; M 2.45
N14: L 1.02; A 2.3; E 1.47; R 1.74; I 1.05; T 1.86; M 2.08; P 2.06; Q 1.39; H 2.48; W 1.83; F 1.92; Y 1.46; D 1.86; S 1.93; G 2.24; K 2.81
R9: K 1.79; V 1.65; W 1; P 2.54; Q 1.81; A 1.55; S 2.33; I 2.9; C 1.29; G 1.25; T 1.7; Y 2.29; M 1.65; N 2.72; L 1.05; E 2.28; H 1.58; D 1.9
L11: A 2.55; V 1.82; Q 3.13; F 1.03; W 1.5; I 1.91; T 2.89; S 2.61; P 2.65; G 1.74; H 2.94; C 1.68; D 2.12; K 2.43; Y 1.9; M 2.51; R 2.56; E 2.57
R8: Q 2.05; C 1.53; L 1.37; T 1.71; P 1.46; M 2.16; K 1.85; F 1.3; N 1.83; D 1.47; S 1.7; E 1.26; I 2.1; W 1.31; H 1.58; V 2.7; A 1.04; G 1.71
P6: V 1.89; R 1.95; L 1.03; M 1.84; T 2.46; K 1.97; Q 1.89; Y 1.62; N 2.29; G 1.86; A 2.2; S 1.72; H 1.62; W 1.5; D 1.94; E 1.48
P5: H 1.7; V 2.15; Y 1.6; N 2.02; T 2.05; R 2.48; F 2.73; Q 1.79; E 3.75; M 1.65; A 2.08; K 2.03; S 1.44; G 2.08; D 2.38; C 3.5
A17: H 2; D 2.71; K 1.7; S 1.84; V 1.4; N 2.96; C 1.39; L 1.63; M 2.2; E 2.63; P 1.81; T 1.4; Y 1.97; I 2.67; W 2.03; R 1.44; Q 2.79; F 1.35; G 1.59
A13: G 3.35; S 2.58; D 1.83; K 2.95; M 1.4; Y 1.66; L 2.21; C 2.93; N 2.19; V 1.75; R 1.62; H 2.26; W 2.03; P 2.87; E 3.18; T 2.25; Q 2.83; I 1.67; F 2.46
A16: T 1.63; E 2.58; L 1.53; K 2.31; Q 1.57; W 1.45; D 2.12; R 1.68; V 1.65; S 1.68; C 1.78; H 2.13; I 1.96; G 1.71; Y 1.48; M 2.98; P 1.78; N 2.5
L15: P 2.14; C 1.49; I 1.93; V 2.07; K 2.53; E 2.96; N 2.28; D 2.81; Y 1.92; Q 3.2; M 2.16; H 2.62; R 3.06; A 2.36; G 2.59; F 1.58; S 2.94; T 1.95
G4: M 1.83; F 1.27; A 1.54; S 2.09; N 2.06; W 2.15; K 2.31; C 1.32; P 2.04; L 1.58; R 2.44; Q 2; I 2.28; D 2.1; V 2.25; E 1.98; Y 1.83; H 2.58; T 2.5

Variants of: B2
Assay: as above
Conditions: c terminus: a fixed tail appended

Protein stability index of substitutions, site by site:
I24: G 2.85; S 1.23; M 1.53; H 1.63; Y 1.22; L 1.82; D 1.54; T 1.1; C 1.34; N 2.39; A 1.39; K 1.75; V 1.78; F 2.58; P 2.14
G23: V 1.85; T 2.58; W 1.93; R 1.28; Y 2.18
